Measured values taken from patent publication US20130122008A1, “Anti-IL 1- ß Antibody Combination Therapy” (NOVARTIS AG, priority 2009, published 2013).
Entries after “also recorded” stand apart in the source; their conditions may differ.

Assays:
Type in all cases: in vivo, human
[1] = tested on: patients with type 2 diabetes mellitus (T2DM); test: Glucagon (OGTT) in clinical study of ACZ885 in T2DM patients on metformin; settings: dose escalation, Week 4 post-dose, versus placebo
Text: Glucagon is a hormone secreted by the alpha cells of the pancreatic islets of Langerhans. It is secreted in response to hypoglycemia and increases the blood glucose. As serum glucose levels rise in the blood, glucagon is inhibited by a negative feedback mechanism. The Millipore/LINCO Glucagon Radioimmunoassay kit utilized I^125 labeled glucagon and glucagon antiserum to determine the level of glucagon in plasma by the double antibody/PEG technique. The antibody is specific for pancreatic glucagon. A standard curve is set up with increasing concentrations of standard unlabeled antigen and from this curve the amount of antigen in unknown samples can be calculated. The method has an inter-assay precision of 7.3-13.5% CV, and an intra-assay precision of 4.0-6.8% (determined by assaying replicate assays then evaluating the coefficient of variation). Accuracy is evaluated by comparison with College of American Pathologists (CAP) Ligand. A multi center, randomized, double blind, placebo-controlled, dose escalation study of the safety, tolerability, pharmacokinetics and pharmacodynamics of ACZ885 administered intravenously to patients with type 2 diabetes mellitus. The aim of the study is to compare the pharmacokinetic and pharmacodynamic effects of five doses (i.v. administration) of ACZ885 with placebo in patients with type 2 diabetes mellitus (T2DM). […]

[2] = tested on: patients with type 2 diabetes mellitus (T2DM); test: Hemoglobin A1c in clinical dose escalation study of ACZ885 i.v. in T2DM patients on metformin
Description: The hemoglobin A1c assay is performed at Covance Central Laboratory Services (CLS) on the FDA-approved Bio-Rad Variant™ analyzer. This analyzer utilizes the principles of ion-exchange high performance liquid chromatography (HPLC) and microcomputer technology. Detection is performed at two wavelengths, 415 nm and 690 nm, to insure a stable baseline. A chromatogram of the changes in the absorbance is plotted versus the retention time. Each chromatogram printout is accompanied by a report identifying each peak detected, plus the relative percent and retention times of each peak. The method has an inter-assay precision of 1.7-2.1% CV, and an intra-assay precision of 0.9-1.1% (determined by assaying 15 replicate assays of a sample then evaluating the coefficient of variation). A multi center, randomized, double blind, placebo-controlled, dose escalation study of the safety, tolerability, pharmacokinetics and pharmacodynamics of ACZ885 administered intravenously to patients with type 2 diabetes mellitus. The aim of the study is to compare the pharmacokinetic and pharmacodynamic effects of five doses (i.v. administration) of ACZ885 with placebo in patients with type 2 diabetes mellitus (T2DM). […] OGTT was administered at Baseline, 4 and 12 wk post-dose. […]

[3] = tested on: patients with type 2 diabetes mellitus (T2DM); test: High sensitive C-reactive protein (hsCRP) in clinical study of ACZ885 in T2DM patients on metformin; settings: single i.v. dose 0.03, 0.1, 0.3, 1.5 mg/kg, Week 4, on stable metformin
Description: CRP is one of the “acute phase” proteins, the serum or protein levels of which rise during general, nonspecific response to infectious and non-infectious inflammatory processes such as rheumatoid arthritis, cardiovascular disease and peripheral vascular disease. CRP is synthesized in the liver and is present in trace amounts in serum or plasma. The C-Reactive Protein HS assay is performed at Covance Central Laboratory Services by immunonephelometry using the Siemens BNII Nephelometer. Polystyrene particles coated with monoclonal antibodies to CRP are agglutinated when mixed with samples containing CRP. The intensity of the scattered light in the nephelometer depends on the CRP content of the sample and therefore the CRP concentration can be determined versus dilutions of a standard of a known concentration The method has an inter-assay precision of 2.1-5.7% CV, and an intra-assay precision of 2.3-4.4% (determined by assaying 10 replicate assays of a sample then evaluating the coefficient of variation). CRP accuracy is evaluated by comparison with College of American Pathologists (CAP) Cardiac Risk Survey. A multi center, randomized, double blind, placebo-controlled, dose escalation study of the safety, tolerability, pharmacokinetics and pharmacodynamics of ACZ885 administered intravenously to patients with type 2 diabetes mellitus. […]

B1: ACZ885: anti-IL1β antibody, also referred to as Canakinumab; variable domains shown in SEQ ID NO:1 (VH) and SEQ ID NO:2 (VL) (antibody, V domains shown)
VH: QVQLVESGGGVVQPGRSLRLSCAASGFTFSVYGMNWVRQAPGKGLEWVAIIWYDGDNQYYADSVKGRFTISRDNSKNTLYLQMNGLRAEDTAVYYCARDLRTGPFDYWGQGTLVTVSS
VL: EIVLTQSPDFQSVTPKEKVTITCRASQSIGSSLHWYQQKPDQSPKLLIKYASQSFSGVPSRFSGSGSGTDFTLTINSLEAEDAAAYYCHQSSSLPFTFGPGTKVDIK
modifications: homo sapiens
- OGTT glucagon AUC0-4 h [1]: Positive trends consistent with dose escalation; also recorded: positive trend at Week 4 post-dose, albeit not statistically significant
- hemoglobin A1c (HbA1c) ([2]; single i.v. dose 1.5 mg/kg, Week 4, T2DM subjects on stable metformin, versus placebo, 1.5 mg/kg): statistically significant decreased; also recorded: Significant reduction
- reduction in HbA1c ([2]; single i.v. dose 10 mg/kg, Week 4 to Week 12, p=0.032): −0.32%
- high-sensitivity C-reactive protein (hsCRP), dose response [3]: linear reduction (dose proportional); also recorded: linear decreasing trend
